Laboratory results published in patent US20240398899A1 (priority 2021, published 2024).

What was measured:
SH-SY5Y neuronal cells [1] = experiment: Mitochondrial membrane potential against MPP+ iodide damage, JC-1 assay; assay type: cell-based, human; settings: MPP+ iodide 1 mM; for Mitochondrial membrane potential: red/green fluorescence ratio
Procedure: The plated cells were incubated overnight in 5% CO2 incubator at 37° C. After 24 h, cells were treated with concentrations of recombinant lectin protein having SEQ ID NO: 1 ranging from 1 μg/ml-50 μg/ml for 24 h. After 24 h of treatment, cells were exposed to damage (MPP+ iodide 1 mM) for 24 h. […] Untreated cells were included as control. Cells treated with Deprenyl served as positive control. After MPP+ iodide exposure, the protective effect of recombinant lectin protein having SEQ ID NO: 1 on mitochondrial membrane potential was assessed by JC-1 assay as follows; after incubation, the supernatants were discarded and 100 μl of JC1-dye solution (prepared by diluting 1 mM DMSO stock in to 10 μM in 1×PBS) was added to each well. The cells were then incubated with the dye in CO2 incubator at 37° C. for 15 min. After 15 min of incubation, the supernatant was removed, and the cells were washed twice with 1×PBS (phosphate buffer saline). 100 μl of 1×PBS was finally added to each well. Red fluorescence (excitation 550 nm, emission 600 nm) and green fluorescence (excitation 485 nm, emission 535 nm) were measured using Biotek Synergy HT plate reader. The mitochondrial membrane potential (Δψm) was calculated as the ratio of intensity of red fluorescence to intensity of green fluorescence described as follows: • Δψm=Intensity of red fluorescence/Intensity of green fluorescence • The percentage increase/restoration in Mitochondrial Membrane Potential against MPP+ iodide damage was calculated as:
[formula] • Where X=Δψm corresponding to SEQ ID NO: 1+ MPP+ iodide treated cells • R=Δψm corresponding to control cells (MPP+ iodide damage alone)

SH-SY5Y neuronal cells [2] = experiment: Annexin-V staining of apoptotic cells against MPP+ iodide damage; assay type: cell-based, human; settings: MPP+ iodide 1 mM; for % Decrease in Apoptotic cells (wrt MPP + iodide): Annexin
Procedure: After 24 h of treatment, cells were exposed to damage (MPP+ iodide 1 mM) for 24 h. […] Untreated cells were included as control. Cells treated with Deprenyl served as positive control. After treatment, cells were harvested by trypsinization and processed for Annexin V assay as follows: Cell were gently harvested into pre-labeled sterile centrifuge tubes and centrifuged at 300×g for 5-7 min. After 24 h of treatment, cells were exposed to damage (MPP+ iodide 1 mM) for 24 h. Cells treated with MPP+ iodide alone were included as Control. Untreated cells were included as negative control. Cells treated with Deprenyl served as positive control. After treatment, cells were harvested by trypsinization and processed for Annexin V assay as follows: Cell were gently harvested into pre-labelled sterile centrifuge tubes and centrifuged at 300×g for 5-7 min. Supernatant were discarded and the pellet was resuspended in 200 μl of fresh culture medium. 100 μl of cell suspension was transferred into pre-labeled sterile centrifuge tubes. 100 μl of Annexin-V reagent was added to each tube and incubated for 30 min at RT in dark. Cells stained for Annexin-V were then transferred into 96-well plates and acquired on flow cytometer (Guava technologies). Percentage of Annexin-V positive cells was determined.
Percent inhibition in apoptotic cells=[(% Annexin positive cells in MPP+iodide alone)−(% Annexin positive cells in Recombinant Lectin having SEQ ID NO:1+MPP+iodide)/% Annexin positive cells in MPP+iodide alone]*100

neuronal cells (pc12) [3] = experiment: Neurite formation, basal model; assay type: cell-based, rat
Procedure: (§1) Cells were counted using haemocytometer and plated in 24-well plates at the densities corresponding to 1×10^4 cells/well/500 μl of the growth medium. The cells were then incubated for 48 h in 5% CO2 incubator at 37° C. Effect of Recombinant Lectin having SEQ ID NO: 1 on neurite formation was evaluated in both basal and MPP+ damage induced model.
For basal model the percent increase in neurite formation was determined as follows

neuronal cells (pc12) [4] = experiment: Neurite formation against MPP+ induced damage; assay type: cell-based, rat; settings: NGF (200 ng/ml) + MPP (100 μM)
Procedure: as §1
The percent protection in neurite formation against MPP+ induced damage was determined as follows:
[formula] • Where, • A=No of neurites in Cells treated with NGF+SEQ ID NO: 1+MPP+ • B=No of neurites in Cells treated with NGF+MPP+ • C=No of Neurites Cells treated with NGF alone

[5] = system: Cerebral Cortex and Hippocampus; experiment: Brain histopathology (H&E), scopolamine induced dementia; assay type: in vivo, Mus musculus (Swiss Albino)
Procedure: Mouse brains were collected after humane sacrifice and fixed in 10% neutral buffered formalin. Then, the brain tissue was trimmed, processed and embedded in paraffin. 5 Micron sections were prepared in slide as a specimen for hematoxylin-eosin (H&E) staining. The hippocampal lesions were assessed microscopically at 100× magnification.
Detailed histological investigation was performed H&E stained brain tissues. Scoring was given according to the neuronal damage. […] The grading criteria for Histopathology score was: Normal or no injury—0; Rare neuronal injury (<5 clusters)—1; Occasional neuronal injury (5-15 clusters)—2; Frequent neuronal injury (>15 clusters)—3; Diffused neuronal injury-4.

[6] = G4: 0.5 mg/kg i.v. qdx14, score 0 normal to 4 diffused neuronal injury
[7] = G5: 0.25 mg/kg i.v. qdx14, score 0 normal to 4 diffused neuronal injury
[8] = G6: 0.125 mg/kg i.v. qdx14, score 0 normal to 4 diffused neuronal injury

B1: SEQ ID NO: 1: variant of the S. rolfsii lectin amino acid sequence (reported as Rec-2 in WO2010/095143) (protein)
chain: TYKITVRVYQTNPDAFFHPVEKTVWKYANGGTWTITDDQHVLTMGGSGTSGTLRFHADNGESFTATFGVHNYKRWCDIVTNLAADETGMVINQQYYSQKNREEARERQLSNYQVKNAKGRNFQIVYTEAEGNDLHANLIIG
% Increase in Mitochondrial potential (w.r.t. control) (SH-SY5Y neuronal cells [1]; 1 μg/mL): 22.7%
Mitochondrial membrane potential (SH-SY5Y neuronal cells [1]; 1 μg/mL): 2.3
% Increase in Mitochondrial potential (w.r.t. control) (SH-SY5Y neuronal cells [1]; 5 μg/mL): 86.6%
Mitochondrial membrane potential (SH-SY5Y neuronal cells [1]; 5 μg/mL): 3.4
% Increase in Mitochondrial potential (w.r.t. control) (SH-SY5Y neuronal cells [1]; 10 μg/mL): 115.9%
Mitochondrial membrane potential (SH-SY5Y neuronal cells [1]; 10 μg/mL): 4
% Increase in Mitochondrial potential (w.r.t. control) (SH-SY5Y neuronal cells [1]; 25 μg/mL): 84.7%
Mitochondrial membrane potential (SH-SY5Y neuronal cells [1]; 25 μg/mL): 3.4
% Increase in Mitochondrial potential (w.r.t. control) (SH-SY5Y neuronal cells [1]; 50 μg/mL): 77.5%
Mitochondrial membrane potential (SH-SY5Y neuronal cells [1]; 50 μg/mL): 3.3
% Apoptotic cells (Anenxin + ve) (SH-SY5Y neuronal cells [2]; 0.001 μg/mL): 1.8%
% Decrease in Apoptotic cells (wrt MPP + iodide) (SH-SY5Y neuronal cells [2]; 0.001 μg/mL): 56.8%
% Apoptotic cells (Anenxin + ve) (SH-SY5Y neuronal cells [2]; 0.01 μg/mL): 1.2%
% Decrease in Apoptotic cells (wrt MPP + iodide) (SH-SY5Y neuronal cells [2]; 0.01 μg/mL): 70.4%
% Apoptotic cells (Anenxin + ve) (SH-SY5Y neuronal cells [2]; 0.05 μg/mL): 2.6%
% Decrease in Apoptotic cells (wrt MPP + iodide) (SH-SY5Y neuronal cells [2]; 0.05 μg/mL): 35.8%
% Apoptotic cells (Anenxin + ve) (SH-SY5Y neuronal cells [2]; 0.1 μg/mL): 3.1%
% Decrease in Apoptotic cells (wrt MPP + iodide) (SH-SY5Y neuronal cells [2]; 0.1 μg/mL): 23.5%
% Apoptotic cells (Anenxin + ve) (SH-SY5Y neuronal cells [2]; 1 μg/mL): 2.3%
% Decrease in Apoptotic cells (wrt MPP + iodide) (SH-SY5Y neuronal cells [2]; 1 μg/mL): 43.2%
% Protection in the formation of Neurites (w.r.t. MPP+) (neuronal cells (pc12) [3]; 0.001 μg/ml): 54.7%
Average No. of Neurites (neuronal cells (pc12) [3]; 0.001 μg/ml): 27
% Protection in the formation of Neurites (w.r.t. MPP+) (neuronal cells (pc12) [3]; 0.01 μg/ml): 47.2%
Average No. of Neurites (neuronal cells (pc12) [3]; 0.01 μg/ml): 26
% Protection in the formation of Neurites (w.r.t. MPP+) (neuronal cells (pc12) [3]; 0.1 μg/ml): 18.9%
Average No. of Neurites (neuronal cells (pc12) [3]; 0.1 μg/ml): 21
% Protection in the formation of Neurites (w.r.t. MPP+) (neuronal cells (pc12) [3]; 5 μg/ml): 34%
Average No. of Neurites (neuronal cells (pc12) [3]; 5 μg/ml): 24
% Protection in formation of Neurites (w.r.t. MPP+) (neuronal cells (pc12) [4]; 0.001 μg/ml): 7.3%
Average No. of Neurites (neuronal cells (pc12) [4]; 0.001 μg/ml): 21
% Protection in formation of Neurites (w.r.t. MPP+) (neuronal cells (pc12) [4]; 0.01 μg/ml): 43.6%
Average No. of Neurites (neuronal cells (pc12) [4]; 0.01 μg/ml): 28
% Protection in formation of Neurites (w.r.t. MPP+) (neuronal cells (pc12) [4]; 0.1 μg/ml): 76.4%
Average No. of Neurites (neuronal cells (pc12) [4]; 0.1 μg/ml): 34
% Protection in formation of Neurites (w.r.t. MPP+) (neuronal cells (pc12) [4]; 1 μg/ml): 78.2%
Average No. of Neurites (neuronal cells (pc12) [4]; 1 μg/ml): 34
% Protection in formation of Neurites (w.r.t. MPP+) (neuronal cells (pc12) [4]; 5 μg/ml): 58.2%
Average No. of Neurites (neuronal cells (pc12) [4]; 5 μg/ml): 30
Histopathology (Mean score) Cerebral Cortex Cortex [5, 6]: 0
Histopathology (Mean score) Cerebral Cortex Meninges [5, 6]: 0
Histopathology (Mean score) Hippocampus CA1 [5, 6]: 0
Histopathology (Mean score) Hippocampus CA3 [5, 6]: 0.67
Histopathology (Mean score) Hippocampus DG [5, 6]: 0
Histopathology (Mean score) Cerebral Cortex Cortex [5, 7]: 0
Histopathology (Mean score) Cerebral Cortex Meninges [5, 7]: 0
Histopathology (Mean score) Hippocampus CA1 [5, 7]: 0
Histopathology (Mean score) Hippocampus CA3 [5, 7]: 0.6
Histopathology (Mean score) Hippocampus DG [5, 7]: 0
Histopathology (Mean score) Cerebral Cortex Cortex [5, 8]: 0
Histopathology (Mean score) Cerebral Cortex Meninges [5, 8]: 0
Histopathology (Mean score) Hippocampus CA1 [5, 8]: 0
Histopathology (Mean score) Hippocampus CA3 [5, 8]: 1
Histopathology (Mean score) Hippocampus DG [5, 8]: 0
